Source: paper PMC3419264, “ATPase Site Architecture Is Required for Self-Assembly and Remodeling Activity of a Hexameric AAA+ Transcriptional Activator” (Molecular Cell, 2012)

System: T1, Nc1ncnc2c1ncn2[C@@H]1O[C@H](COP(=O)(O)OP(=O)(O)OP(=O)(O)O)[C@@H](O)[C@H]1O
T1 construct: AAA+ domain, residues 1-275; purified as in Joly et al. 2006; hexamer
Assay: steady-state ATPase assay, NADH-coupled regeneration system
Type: biochemical, Escherichia coli
Conditions: 37 °C, without σ54, turnover given as Vmax (min^-1), maximal error 10%
Excerpt: steady-state ATPase assay, NADH-coupled regeneration system on PspF1-275

Row | Substance | Km | kcat
1 | PspF1-275 (Escherichia coli K-12; Y126A) | 650 µM | 11.95 ± 1.77 min⁻¹
2 | PspF1-275 (Escherichia coli K-12; L9A) | 2,300 μM | 20.72 ± 2.55 min⁻¹
3 | PspF1-275 (Escherichia coli K-12; E43D) | 250 µM | 22.26 ± 4.80 min⁻¹
4 | PspF1-275 (Escherichia coli K-12; E118D) | 800 µM | 20.23 ± 3.70 min⁻¹
5 | PspF1-275 (Escherichia coli K-12; R162K) | 200 µM | 1.88 ± 0.29 min⁻¹
6 | PspF1-275 (Escherichia coli K-12; E43Y) | 1,250 μM | 2.49 ± 0.17 min⁻¹
7 | PspF1-275 (Escherichia coli K-12; E43A) | 750 µM | 1.37 ± 0.10 min⁻¹
8 | PspF1-275 (Escherichia coli K-12; L44A) | 310 µM | 18.16 ± 2.42 min⁻¹
9 | PspF1-275 (Escherichia coli K-12; R162A) | 90 µM | 0.18 ± 0.02 min⁻¹
10 | PspF1-275 (Escherichia coli K-12; R122A) | 300 µM | 1.26 ± 0.03 min⁻¹
